Measurements taken from the nanobody polyreactivity screen of Harvey et al. (2022).

assay: yeast display, Sf9 membrane polyspecificity reagent, FACS + sequencing; frameworks hold sequencing errors
Method in brief: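 Nanobodies from a synthetic yeast display library (Saccharomyces cerevisiae BJ5465), induced 36–48 hours with galactose, were stained 1 hour at 4 °C with 10% biotinylated, detergent-solubilized Sf9 membrane reagent, enriched on streptavidin microbeads, then FACS-sorted. Anti-HA (expression) and streptavidin (reagent binding) fluorescence set low and high (top ~1%) gates. Polyreactivity labels come from the gate of origin. Genes were colony-PCR amplified, MiSeq 2 × 250 sequenced and filtered by CDR length.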

| Sequence | polyreactivity (PSR sort gate) |
| --- | --- |
| QVQLVESGGGLVQAGGSLRLSCAASGSTFRQYAMGWYRQAPGKERELVAGISYRGGRTYYADSVKGRFTISRDNAKNTVYLHMNSLKPEDTAVYYCNALRHYRDISVDGDDYWGQGTQVTVSS | high polyreactivity |
| QVQLVESGGGLVQAGGSLRLSCDASGSTFVTYAMGWYRPAPGKERELVAAINTGGRTKYADSVKGRFTISRDNATNTVYLQMNSLKPEDTAVYYCAARLSTTGVAYGYWGQGTQVTVSS | high polyreactivity |
| QVQLVESGGGLVQAGGSLRLSCAASGFTFSSYAMGWYRQAPGKERELVARISSGSSTNYADSVKGRFTISRDNAKNTVYLQMNSLKPEDTAVYYCAARYTARRQSYGYWGQGTQVTVSS | high polyreactivity |
| QVQLLESGGGLVQAGGSLRLSCAASGSTYSRYDMGWYRPAPGKERELVAAISRSGGSTYYADSVKGRFTISRDNAKNTVYLQMNSLKPEDTAGYYCAAYLPYRQGRYGYEYWGQGTQVNVSS | high polyreactivity |
| QVQLVESGGGLVQAGGSLRLSCAASGPISAIYDMGWYRQAPGKEREVVAAISGGTSTYYADSVKGRFTISRDNAKNTVYLQMNSLKPEDTAVYYCNAEASSYHGVEDEYDYWGQGTQVTVSS | low polyreactivity |
| QVQLVESGGGLVQAGGSLRLSCAASGFTFWRYAMGWYRQAPGKDRELVAAISSSGGSTYYADSVKGRFTISRDNAKNTVYLQMNSLKPEVTAVYYCATSVRFVRGWGYSYRGYDYWGQGTQVTVSS | high polyreactivity |
| QVQLVESGGGLVQAGGSLRLSCAASGFIFWRNAMGWYSQAPGQERELVAAITSGDRTNYADSVKGRFTISRDNAKNTVYLQMNSLKPEDTAVYYCNARRYRLVSYDYWGQGTQVTVSS | low polyreactivity |
| QVQLVESGGGLVQAGGSLRLSCASSVYIFVSNTKGWYRPAPGKERELVAAISWSGGSTNYADSVKGRFTISRDKAKNTVYLLMNSLKPEDTAVYYCNADDASHYYFRDDYWGQGTQVTVSS | low polyreactivity |
| QVQLVESGGGLVQAGGSLRLSCAASGRIFGINVMGWYRPAPGKERELVARITGRGGRTYYADSVKGRFTMSRDNAKNTVYLQMNSLKPEDTAVYYCAADARYEAYDYWGQGTQVTVSS | high polyreactivity |
| QVQLEESGGGLVQAGGSLRLSCAASGAIFYAYAMGCYRQATGKEREFVAAITRRGGNTYYADSVKGRFTISRDNAKNTVYVQMNSLKPEDTEVYYSAADAGGGTFDYWGHGTQVTVSS | low polyreactivity |
| QVQLVESRGGLVQAGGSLRLSCAASGIIFHFYAMGWYRQAPGKERELVAAINSRGGSTYYADSVKGRFTISRDNAKNTVYLQMNSLKPEDTAVYYCAAQYLFYGHDYWGQGTQVTVSS | low polyreactivity |
| QVQLVESGGGLVQAGGSLRLSCAASGSIFSYYAMGWYRPAPGKERELVAAISKRGPSTYYADSVKGRFTISRDNAKNSVYLLMNSLKPEDTAVYYCAAKYSRRSSVSYYYWGQGTQVTVSS | high polyreactivity |
| QVQLVESVGGLVQAGGSLRLSCAASGRIFRKYDMGWYRQAPGKERELVAAISGTGITYYADSVKGRFTISRDNAKNTVYLQMNSLKPEDTAVYYCARGSKPRAWSWAYPSATSIYDYWGQGTQVTVSS | low polyreactivity |
| QVQLVESGGGLVQAGVSLRLSCAASGSLFSANAMGWYRQAPGKERELVASITGDGSTNYADSVKGRFTISRDNAMNTVYLQMNSLKPEDTAVYYCAADIGSWYDYWGQGTQVTVSS | low polyreactivity |
| QVQLQESGGGLVHAGGSLRLSCAASGTISFINMMGWYRQAPGRERELVASINFGANTNYADSVKGRFTISRDNAKNTVYLQMNSLKPEYTAVYYCAVYDFDAYSLYYWGQGTLVTVSS | high polyreactivity |
| QVHLVESGGGLVQAGGSLRLSCAASGSIFEENAMGWYRQAPGKERELVAVISTRDGRTYYADSVKGRFTISRDNAKNTVYLQMNSLKPEDTAVYYCAASPDPYWRRMDYWGQGTQVTVSS | high polyreactivity |
